Patent publication US7144731B2, “SCF antibody compositions and methods of using the same” (Amgen Inc., priority 1989, dated 2006)

Experiments:
[1] = test system: bone marrow from patients with DBA; test: BFU-E culture of Diamond-Blackfan anemia marrow; type: cell-based, human
Description: (§1) Another bone marrow failure disorder which is responsive to SCF is Diamond-Blackfan anemia (DBA) or congenital pure red cell aplasia. This congenital abnormality results in a selective defect in the production of red blood cells and often results in chronic transfusion dependency. […] This pattern of response reflects an intrinsic defect in the receptor for SCF (c-kit) on the progenitor cell. In either case (abnormal production of SCF by the microenvironment or decreased stimulation of the hematopoietic progenitor by SCF) SCF overcomes the block to hematopoiesis which characterizes bone marrow failure syndromes such as DBA.

control marrow = test: BFU-E culture of control marrow; type: cell-based, human; conditions: with EPO
Description: as §1

normal human bone marrow = test: Human CFU-GM assay; type: cell-based; conditions: average of triplicate cultures; SCF = COS-1 supernatant 4 days after transfection
human bone marrow = test: Human bone marrow colony assay; type: cell-based; conditions: agar colony assay, factors alone or combined
Method: The cDNA of human SCF corresponding to amino acids 1–162 obtained by PCR reactions outlined in Example 3D, was expressed in COS-1 cells as described for the rat SCF in Example 4. COS-1 supernatants were assayed on human bone marrow as well as in the murine HPP-CFC and MC/9 assays. […] The culture conditions of the assay were as follows: human bone marrow from healthy volunteers was centrifuged over Ficoll-Hypaque gradients (Pharmacia) and cultured in 2.1% methyl cellulose, 30% fetal calf serum, 6×10^−5 M 2-mercaptoethanol, 2 mM glutamine, ISCOVE'S medium (GIBCO), 20 U/ml EPO, and 1×10^5 cells/ml for 14 days in a humidified atmosphere containing 7% O2, 10% CO2, and 83% N2. Only those colonies of 0.2 mm in size or larger are indicated.
Recombinant human SCF was tested in agar colony assays on human bone marrow in combination with other growth factors as described above.

KG-1 = KG-1 soft agar cloning assay; type: cell-based, human; conditions: 50 μl assayed (5 ng/ml)
Method: Another activity of recombinant human SCF is the ability to cause proliferation in soft agar of the human acute myelogenous leukemia (AML) cell line, KG-1 (ATCC CCL 246). COS-1 supernatants from transfected cells were tested in a KG-1 agar cloning assay [Koeffler et al., Science, 200, 1153–1154 (1978)] essentially as described except cells were plated at 3000/ml.

HIV = conditions: other studies; cited from earlier work
UT-7 cells = test: UT-7 ^3H-thymidine uptake assay; type: cell-based, human; conditions: E. coli derived
Method: UT-7 cells are a human megakaryocyte, huGM-CSF responsive cell line obtained from John Adamson, New York Blood Center, New York, N.Y. UT-7 cells were cultured in Iscove's Modified Dulbecco's Medium, 10% FBS, 1× glutamine, 5 \g/ml huGM-CSF. Cells are passaged twice a week at 1×10^5 cells/ml.
Cells were washed twice in phosphate buffered saline (PBS) and resuspended in RPMI medium with 4% FBS and glutamine penicillin streptomycin (GPS) (Irvine Scientific Cat No. 9316 used at 1% volume per volume) at 4×10^4 cells/ml before use. Human SCF along with specific samples were added to 4000 cells/well in 96 well plates and were cultured for 72 hrs. 0.5 uCi/well of ^3H-Thymidine was then added to each plate, plates were harvested and counted 4 hours later.

[2] = target: T1, SCF receptor (OCIM1 plasma membrane) (Homo sapiens, UniProt P10721); test: SCF radioreceptor assay; type: binding; conditions: E. coli derived
T1 construct: endogenous in cells; host or cells: OCIM1 human erythroleukemic cells, plasma membrane preparation
Method: OCIM1 cells, [Papayannopoulou et al., Blood 72:1029–1038 (1988)] are a human erythroleukemic cell line expressing many human SCF receptors per cell. These cells are grown in Iscove's Modified Dulbecco's Medium, 10% FBS, and 1× glutamine and passaged 3 times a week to 1×10^5 cells/ml.
Preparation of the OCIM1 plasma membrane is as follows with all steps performed on ice.
First, 40 T175 flasks of cells were grown-up in OCIM1 culture medium, for a total of 1.9×10^9 […]. The conditioned medium and 1 mM Phenyl Methyl Sulfonyl Fluoride (PMSF) protease inhibitor, was spun down in 8×250 ml tubes at 1000 rpm for 10 minutes at 4° C. Cells were washed with PBS and repelleted in 4×50 ml centrifuge tubes at 1000 rpm for 10 minutes at 4° C. Cells were resuspended in 20 ml ice cold PBS with glucose sodium pyruvate (Gibco Cat #310-4287). The 20 ml cell solution was put into a pre-pressurized, pre-chilled (4° C.) “cell bomb” designed to lyse the cells. Cells were pressurized at 400–650 PSI for 10 minutes to establish equilibrium. When the pressure is released cell lysis occurs.
At this point the cells were checked for the percentage of cell lysis. 90% lysis was common. The cell suspension was resuspended in 80 mls sucrose buffer (0.25M sucrose, 10 mM Tris, 1 mM EDTA in double distilled (dd) H2O, filtered through a 0.45 u filter, pH 7.0) and divided between two 40 ml screwcap tubes. Tubes were spun at 5900 RPM for 10 minutes in a Beckman J2-21 centrifuge, JA-20 rotor at 4° C. The supernatants were saved and spun one more time as above to further remove any unwanted material. Supernatants were saved and distributed equally into 2 nalgene 40 ml centrifuge tubes. These supernatants were centrifuged at 16,000 RPM 4° C. for 30 min. in J2-21 centrifuge, JA-20 rotor. These supernatants were discarded being careful to save pellets. Each pellet was resuspended in sucrose buffer so there were 20 mls per tube in 4×36 ml plastic ultracentrifuge tubes. Using a 20 ml syringe and a large trochar, the solution was carefully underlayered in each tube with ice cold 36% sucrose solution (36.1 g sucrose/100 mls ddH2O), bringing the level of the liquid to within 2 mm of the top of the tube. Without disturbing the interface, each tube was carefully placed into each of […] titanium ultracentrifuge tubes. Tubes were centrifuged at 27,000 RPM, 4° C. for 75 minutes in an ultracentrifuge. These tubes were carefully removed from the rotor and from titanium buckets, placed in a rack with the 36% sucrose interface visible. The membraneous material at the interface was collected with a pasteur pipet and transfered into 2 clean nalgene 40 ml centrifuge tubes. Volume was brought up to 40 mls with ice cold sucrose buffer. Tubes were balanced and centrifuged as before at 5900 RPM in J2-21 centrifuge. […]

normal baboons = test: In vivo activity in normal primates
[3] = test system: peripheral blood mononuclear cells of normal donors; test: BFU-E assay, peripheral blood of normal donors; type: cell-based; conditions: Homo sapiens, PBMC; in the presence of the three concentrations of HuSCF (10, 100, 1000 ng/ml); read-out: IC50 (fifty percent inhibitory concentration) of zidovudine for BFU-E
Method: Peripheral blood mononuclear cells were isolated from leukopaks and peripheral blood using ficoll-hypaque sedimentation followed by extensive washing with Hank's Balance Salt Solution (HBSS). Blood cells were enumerated and viability ascertained by trypan blue dye exclusion.
Assays for BFU-E were performed in a standard protocol using normal human bone marrow as the control. Heparinized blood was diluted with an equal volume of HBSS (GIBCO, Grand Island, N.Y.), layered over Ficol-Paque (Pharmacia, Piscataway, N.J.) and centrifuged at 400 g for 30 minutes at room temperature. Light density cells (s.g. <1.077) were collected and washed twice in HBSS. Cells were resuspended in Iscove's Medium with 10% Fetal Bovine Serum (GIBCO, Grand Island, N.Y.) at a concentration of 1×10^7/ml. […] Erythroid burst colonies were scored after 14 days of culture in a humidified atmosphere containing 5% CO2. Each assay was done in duplicate and colonies with >50 cells present on day 14 with hemoglobinization were scored as BFU-E.
The 50% inhibitory concentration for zidovudine was calculated by expressing the mean of four determinations of BFU-E for each level of zidovudine and huSCF as a percentage of control (no added zidovudine). […] The 50% inhibitory concentration was calculated by interpolation and the value used as the exponent for the base of 10. […]

Lewis rats = test: SCF and G-CSF in Lewis rats; type: in vivo, rat
Method: Quantitative peripheral blood and bone marrow differentials were performed at various timepoints as previously described [Hulse, Acta Haematol. […] J. Physiol. […] Histologic examination of the spleen was performed with Bouin's-fixed paraffin-embedded sections stained with hematoxylin-and-eosin as well as by the Giemsa method. The numbers of normoblasts, megakaryocytes, and mast cells per 400× or 1000× high power field (HPF) in the spleen was quantitated by counting the number of each cell type in randomly selected fields of the red pulp. Increases in circulating numbers of neutrophils over extended time periods were when so stated calculated by planimetry as previously described. […] Data is expressed as the mean plus-or-minus one standard deviation and statistical analysis is by the unpaired t-test.

[4] = test system: dog with cyclic neutropenia; test: Canine cyclic neutropenia; type: in vivo; conditions: rcanineSCF 100 mg/kg/day s.c. over several weeks
Method: Cyclic neutropenia, in particular, is a defect in the regulation of stem cell division since other lineages (e.g., platelet, erythrocyte and monocyte) are also effected. […] A typical dog with cyclic neutropenia was treated with rcanineSCF (recombinant canine SCF) at […] subcutaneously over several weeks. […] Thus, SCF is useful in treating a variety of bone marrow failure syndromes, either alone or in combination with other hematopoietic growth factors.

[5] = 6 hours after a single injection

## SCF: stem cell factor added to DBA and control marrow cultures; form not specified
[1]; majority of patients, ≤10 ng/ml SCF, with EPO
  increase in the frequency of BFU-E: approximately 3 fold
[1]; other group of patients with DBA
  SCF concentration giving an increase in the frequency of BFU-E: greater than or equal to 50 ng/ml
Control marrow
  increase in frequency of BFU-E: 1.5 fold

## GM-CSF: human granulocyte-macrophage colony stimulating factor
Normal human bone marrow
  Colony #/100,000 cells (±SEM): 7 ± 1
Human bone marrow
  Colony #/10^5 cells (14 Days): 14 ± 2
KG-1
  Colony #/3000 Cells ± SD: 14 ± 5
HIV
  replication of HIV in partially purified primary peripheral blood monocytes: significantly increase replication of HIV

## Human SCF^1-165: recombinant human [Met^−1]SCF^1-165 expressed in E. coli
UT-7 cells
  stimulation of UT-7 proliferation, comparison: equally active
[2]
  competition with binding of human [^125I][Met^−1]SCF^1-164: compete equally well
Normal baboons
  in vivo biological activity in primates compared with human SCF^1-164: same in vivo biological activity

## Cc1cn([C@H]2C[C@H](N=[N+]=[N-])[C@@H](CO)O2)c(=O)[nH]c1=O [zidovudine]
[3]
  IC50: 2.65 to 1380 µM

B1: G-CSF: human granulocyte colony-stimulating factor (protein, UniProt P09919 31-207, looked up)
Granulocyte …: TPLGPASSLPQSFLLKCLEQVRKIQGDGAALQEKLVSECATYKLCHPEELVLLGHSLGIPWAPLSSCPSQALQLAGCLSQLHSGLFLYQGLLQALEGISPELGPTLDTLQLDVADFATTIWQQMEELGMAPALQPTQGAMPAFASAFQRRAGGVLVASHLQSFLEVSYRVLRHLAQP
Normal human bone marrow
  Colony #/100,000 cells (±SEM): 24 ± 1
Human bone marrow
  Colony #/10^5 cells (14 Days): 32 ± 3
Lewis rats; 25 ug/rat i.v.
  time of peak neutrophilia after a single injection: 12 h
Lewis rats; [5]
  decrease in mature marrow neutrophils vs carrier control: 44%
  mature marrow neutrophils: 5.55±0.5 ×10^6 PMN/humerus
Lewis rats; 6 hours after single injection
  myeloblasts and promyelocytes in marrow vs carrier controls: significant increase in myeloblasts and promyelocytes
Lewis rats; 24 hours after daily injection for one week
  mature neutrophils in bone marrow: 28.5±2.1 ×10^6 PMN/humerus
Lewis rats; daily 25 ug/rat for one week, 24 hours after the last injection
  circulating neutrophils: 10.6±3.6 ×10^3 PMN/mm^3
Lewis rats; daily for one week
  morbidity and thrombocytopenia: None of the rats
Lewis rats; daily for one week, 12 hours after the last (seventh) injection
  circulating neutrophils: 25.3±0.3 ×10^3 PMN/mm^3
Lewis rats; per 400× HPF, daily for one week
  number of megakaryocytes in the spleen: 2.0±1.1
Lewis rats; per 1,000× HPF, daily for one week
  number of normoblasts in the spleen: 0±0
[4]
  neutrophil cycling: increases the frequency and amplitude of neutrophil cycling, but does not eliminate it
